Target: T1, extracellular soluble domain of sortilin, residues 78-755 (Homo sapiens, UniProt Q99523)
T1 construct: the extracellular soluble domain of sortilin, residues 78-755, was expressed in Expi293F cell line; made in house; host or cells: Expi293F
Assay: microplate binding assay, enzymic activity of sortilin-bound GAA tagged protein
Excerpt: FIG. 2. α-D-glucopyranoside activity of sortilin-bound GAA tagged protein. Extracellular soluble sortilin domain with a C-terminal TwinStrep tag for immobilized on a 96-well microplate. […] A fluorogenic 4-methylumbelliferyl-α-D-glucopyranoside substrate was used to measure α-D-glucopyranoside activity of the sortilin-bound tagged proteins.
For a microplate binding assay, the extracellular soluble domain of sortilin, residues 78-755, was expressed in Expi293F cell line (using Expi293 Expression System; Thermo Fisher, A14635) with a C-terminal TwinStrep affinity tag. Harvests were collected after 5 days. Conditioned media was incubated with StrepTactin XT coated microplates (IBA, 2-4101-001) for 1 hour to immobilize sortilin to the plates. After several washes, wells coated with sortilin were incubated with varying doses of NT-GAA, GAA-NT or GAA diluted into PBS for 30 minutes. The unbound protein was then washed away. The α-D-glucopyranoside activity of the bound GAA tagged protein was measured using a fluorogenic substrate, 4-methylumbelliferyl-α-D-glucopyranoside, at pH 4.8. […] The inflection point in both binding curves indicates bivalency of sortilin for neurotensin.

α-D-glucopyranoside activity of sortilin-bound protein (immobilized sortilin, 30 minutes in PBS, 4-methylumbelliferyl-α-D-glucopyranoside, pH 4.8, FIG. 2): no α-D-glucopyranoside activity | binding to sortilin (inferred from absence of activity in sortilin-coated wells, FIG. 2): did not bind to sortilin
Substance: GAA: GAA with no NT tag; lysosomal alpha-glucosidase (RefSeq: NM_000152.5) [reference compound]
